Measurements published in paper PMC8847575, “HSL1 and BAM1/2 impact epidermal cell development by sensing distinct signaling peptides” (Nature Communications, 2022).
Values joined by “and” are separate entries in the source; they are usually repeats but may differ in a detail not shown here. Identical values can stand only once. Square brackets hold non-standard residues; d marks the D form. Ends that are not written are not given here. Peptide text beside a SMILES is read from it. Hyp = O=C(O)[C@@H]1C[C@@H](O)CN1

T1: biotinylated HSL1 ectodomain with Avi-tag (Arabidopsis, UniProt Q9SGP2 17-618, biotin on the Avi-tag (BirA))
T1 chain: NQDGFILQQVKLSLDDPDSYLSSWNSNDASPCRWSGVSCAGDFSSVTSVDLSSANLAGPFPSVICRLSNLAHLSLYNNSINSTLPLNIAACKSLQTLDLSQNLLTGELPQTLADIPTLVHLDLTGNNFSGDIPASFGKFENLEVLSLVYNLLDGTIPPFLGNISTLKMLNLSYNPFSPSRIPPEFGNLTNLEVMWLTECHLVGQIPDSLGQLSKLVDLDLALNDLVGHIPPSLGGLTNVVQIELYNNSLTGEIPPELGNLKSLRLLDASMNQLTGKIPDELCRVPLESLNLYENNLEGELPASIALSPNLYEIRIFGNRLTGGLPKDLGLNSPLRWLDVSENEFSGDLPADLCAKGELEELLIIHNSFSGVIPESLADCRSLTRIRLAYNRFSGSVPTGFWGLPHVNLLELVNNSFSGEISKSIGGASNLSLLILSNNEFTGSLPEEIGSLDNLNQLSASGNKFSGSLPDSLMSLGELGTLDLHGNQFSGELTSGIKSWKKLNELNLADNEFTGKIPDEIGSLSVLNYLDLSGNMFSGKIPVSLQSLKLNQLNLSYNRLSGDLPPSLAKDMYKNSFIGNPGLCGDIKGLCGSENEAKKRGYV

T2: BAM1 (BARELY ANY MERISTEM 1) ectodomain (Arabidopsis, UniProt O49545 20-637)
T2 chain: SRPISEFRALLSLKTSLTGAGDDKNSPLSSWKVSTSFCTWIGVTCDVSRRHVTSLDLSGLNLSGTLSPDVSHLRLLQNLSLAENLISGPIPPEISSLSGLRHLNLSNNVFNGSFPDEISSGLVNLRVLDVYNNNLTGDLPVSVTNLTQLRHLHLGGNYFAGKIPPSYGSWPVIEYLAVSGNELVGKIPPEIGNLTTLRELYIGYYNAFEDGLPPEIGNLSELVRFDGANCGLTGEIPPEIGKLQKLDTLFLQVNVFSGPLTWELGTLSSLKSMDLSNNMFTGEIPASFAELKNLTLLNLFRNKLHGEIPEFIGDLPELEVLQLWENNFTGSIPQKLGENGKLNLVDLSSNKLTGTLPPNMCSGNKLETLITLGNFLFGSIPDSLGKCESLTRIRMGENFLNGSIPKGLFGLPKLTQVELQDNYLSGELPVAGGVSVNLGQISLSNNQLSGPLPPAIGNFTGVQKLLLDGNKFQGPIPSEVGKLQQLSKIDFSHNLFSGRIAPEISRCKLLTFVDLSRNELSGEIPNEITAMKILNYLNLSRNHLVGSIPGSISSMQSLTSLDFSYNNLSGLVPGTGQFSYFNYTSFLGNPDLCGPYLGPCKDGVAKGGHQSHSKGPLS

T3: BAM1 LRR ectodomain (Arabidopsis thaliana, UniProt O49545)
T3 construct: BAM1 (residues 20–637, AT5G65700); azurocidin or Drosophila BIP signal peptide (secretion signal) (N); made in house; host or cells: Trichoplusia ni Tnao38 insect cells (baculovirus)
T3 sequence (O49545 20-637): T2 chain

T4: HSL1 (HAESA-LIKE 1) ectodomain (Arabidopsis, UniProt Q9SGP2 17-618)
T4 chain: T1 chain

B1: IDL3 (IDA-LIKE 3) mature peptide (peptide)
chain: PVPTSGPSRKHN
modifications: not fully specified; also: conserved central hydroxyproline, position not given here
B2: IDA (INFLORESCENCE DEFICIENT IN ABSCISSION) mature peptide (peptide)
chain: YVPIPPSAPSKRHN
modifications: also: hydroxyproline at Pro64 (precursor numbering), position in chain not settled
B3: IDL1 (IDA-LIKE 1) mature peptide (peptide)
chain: YVLVPPSGPSMRHN
modifications: not fully specified; also: conserved central hydroxyproline, position not given here

Molecular target: T1, biotinylated HSL1 ectodomain with …
Assay: GCI
Details: not given

Molecule	koff
B1	0.55 s⁻¹
PVPASAPSRKHN [IDL4 (IDA-LIKE 4) mature peptide]	0.65 s⁻¹
B2	0.127 s⁻¹

Molecular target: T1, biotinylated HSL1 ectodomain with …
Assay: not given
Details: not given

Molecule	Kd
B1	608 nM and 1000 nM
PVPASAPSRKHN [IDL4 (IDA-LIKE 4) mature peptide]	2700 nM and 1000 nM
B2	655 nM and 422 nM

Molecular target: T1, biotinylated HSL1 ectodomain with …
Assay: not given
Details: not given
Remark: another data set of the same source

Molecule	koff
B1	0.59 s⁻¹ and 0.49 s⁻¹
PVPASAPSRKHN [IDL4 (IDA-LIKE 4) mature peptide]	0.52 s⁻¹ and 0.75 s⁻¹
B2	0.15 s⁻¹ and 0.12 s⁻¹

Molecular target: T2, BAM1 (BARELY ANY MERISTEM 1) ectodomain
Assay: ITC
Details: not given

Molecule	Kd
PLVPSGPNPLHN [CLE9 variant with the first residue substituted by the corresponding one of IDA]	91 nM
PLPPSGPNPLHN (also: Hyp112 and Hyp115 presumed as in wild-type) [CLE9^R109PV111P]	2240 nM
RLVPSAPSKRHN [IDA^P58RI59LP60V peptide]	980 nM

Molecular target: T1, biotinylated HSL1 ectodomain with …
Assay: GCI
Details: not given
Remark: another data set of the same source

Molecule	Kd
B1	800 nM
PVPASAPSRKHN [IDL4 (IDA-LIKE 4) mature peptide]	1850 nM
B2	580 nM

Molecular target: T3, BAM1 LRR ectodomain
Assay: ITC, peptide titrated into BAM1 ectodomain
Format: binding
Details: ITC, peptide into BAM1 ectodomain (cell), 25 °C, 20 mM sodium citrate pH 5.0, 150 mM NaCl; N fitted to 1; mean ± SD of at least two independent experiments; n.d = no binding detected
Description: All genes used for protein expression in Trichoplusia ni Tnao38 cells[46] were codon optimized and cloned into a modified pFastBac vector (Geneva Biotech) providing an azurocidin[47] or Drosophila BIP signal peptide, a TEV (tobacco etch virus protease) cleavage site and a Strep-9xHis tandem affinity tag at their carboxy terminus. The genes used are coding for the Arabidopsis ectodomains of HSL1 (residues 17-618, AT1G28440), HAE (residues 20-620, AT4G28490) SERK1 (residues 24–213, AT1G71830), and BAM1 (residues 20–637, AT5G65700). To perform Grating-coupled interferometry (GCI) experiments, HSL1 was fused to a non-cleavable Avi-tag[49],[50]. Baculovirus generation was carried out in DH10 cells and virus amplification was done in Spodoptera frugiperda Sf9 cells. For protein expression, Trichoplusia ni Tnao38 cells were infected with HAE, HSL1, BAM1 and SERK1 virus with a multiplicity of infection (MOI) of 3. The cells were grown 1 day at 28 °C and two days at 22 °C at 110 rpm. After every expression round, secretion of our proteins was detected using an anti-His-HRP conjugated antibody from Roche (Ref:11965085001) in a 1:2000 dilution. […] Next, affinity tags were removed by incubating the purified proteins with recombinant His-tagged TEV protease, in a 1:50 ratio. The cleaved tag and the protease were separated from the ectodomains by a second Ni^2+ affinity step. Proteins were further purified by size-exclusion chromatography on a Superdex 200 Increase 10/300 GL column (GE Healthcare) equilibrated in 20 mM citric acid pH 5.0, 150 mM NaCl. Peak fractions containing the single proteins or complexes were concentrated using Amicon Ultra concentrators (Millipore, MWCO 10,000 for SERK1 and 30,000 for HAE, HSL1, and BAM1) and used for crystallization or biochemical experiments. Proteins were analyzed for purity and structural integrity by SDS-PAGE.
Experiments were performed at 25 °C using a MicroCal PEAQ-ITC (Malvern Instruments) with a 200 µL standard cell and a 40 μL titration syringe. HSL1, BAM1, and SERK1 proteins were gel-filtrated into the ITC buffer (20 mM sodium citrate pH 5.0, 150 mM NaCl). Molar protein concentrations for HSL1, BAM1, and SERK1 were calculated using their molar extinction coefficient and a molecular weight of 74,896 and 27,551 Da, respectively as previously determined. A typical experiment consisted of injecting 2 μL of a range between 75 and 600 μM solution of ligand into 10 to 30 μM HAE, HSL1, or BAM1 solution in the cell at 150 s intervals and 500 rpm stirring speed. The SERK1 vs HAE/HSL1-peptide experiments were performed by titrating 100 µM SERK1 in the cell, using the same injection pattern. ITC data were corrected for the heat of dilution by subtracting the mixing enthalpies for titrant solution injections into protein-free ITC buffer. Experiments were done in duplicates or triplicates, otherwise specified, and data were analyzed using the MicroCal PEAQ-ITC Analysis Software provided by the manufacturer. […] The N values were fitted to 1 in the analysis.

Molecule	Kd (dissociation constant), peptide vs BAM1
CC[C@H](C)[C@H](NC(=O)[C@@H]1CCCN1)C(=O)N1CCC[C@H]1C(=O)N1CCC[C@H]1C(=O)N[C@@H](CO)C(=O)NCC(=O)N1C[C@H](O)C[C@H]1C(=O)N[C@@H](CC(N)=O)C(=O)N1CCC[C@H]1C(=O)N[C@@H](CC(C)C)C(=O)N[C@@H](Cc1c[nH]cn1)C(=O)N[C@@H](CC(N)=O)C(=O)O [CLE9^R109PL110IV111P] (H-PIPPSG[Hyp]NPLHN-OH)	non-detectable binding
CC(C)C[C@H](NC(=O)[C@@H](N)CCCNC(=N)N)C(=O)N[C@H](C(=O)N1CCC[C@H]1C(=O)N[C@@H](CO)C(=O)N[C@@H](C)C(=O)N1C[C@H](O)C[C@H]1C(=O)N[C@@H](CO)C(=O)N[C@@H](CCCCN)C(=O)N[C@@H](CCCNC(=N)N)C(=O)N[C@@H](Cc1c[nH]cn1)C(=O)N[C@@H](CC(N)=O)C(=O)O)C(C)C [IDA^P58RI59LP60V] (H-RLVPSA[Hyp]SKRHN-OH)	restore binding to BAM1

Same assay, conditions: ITC, peptide into BAM1 ectodomain, 25 °C, pH 5.0; mean ± SD of at least two independent experiments

Molecule	ΔH, peptide vs BAM1
CC(C)C[C@H](NC(=O)[C@@H]1CCCN1)C(=O)N[C@H](C(=O)N1CCC[C@H]1C(=O)N[C@@H](CO)C(=O)NCC(=O)N1C[C@H](O)C[C@H]1C(=O)N[C@@H](CC(N)=O)C(=O)N1CCC[C@H]1C(=O)N[C@@H](CC(C)C)C(=O)N[C@@H](Cc1c[nH]cn1)C(=O)N[C@@H](CC(N)=O)C(=O)O)C(C)C [CLE9^R109P] (H-PLVPSG[Hyp]NPLHN-OH)	-26 ± 8 kcal/mol
CC[C@H](C)[C@H](NC(=O)[C@@H]1CCCN1)C(=O)N[C@H](C(=O)N1CCC[C@H]1C(=O)N[C@@H](CO)C(=O)NCC(=O)N1C[C@H](O)C[C@H]1C(=O)N[C@@H](CC(N)=O)C(=O)N1CCC[C@H]1C(=O)N[C@@H](CC(C)C)C(=O)N[C@@H](Cc1c[nH]cn1)C(=O)N[C@@H](CC(N)=O)C(=O)O)C(C)C [CLE9^R109PL110I] (H-PIVPSG[Hyp]NPLHN-OH)	-27 ± 11 kcal/mol
CC(C)C[C@H](NC(=O)[C@@H]1CCCN1C(=O)[C@H](CC(N)=O)NC(=O)[C@@H]1C[C@@H](O)CN1C(=O)CNC(=O)[C@H](CO)NC(=O)[C@@H]1CCCN1C(=O)[C@@H]1CCCN1C(=O)[C@H](CC(C)C)NC(=O)[C@@H](N)CCCNC(=N)N)C(=O)N[C@@H](Cc1c[nH]cn1)C(=O)N[C@@H](CC(N)=O)C(=O)O [CLE9^V111P] (H-RLPPSG[Hyp]NPLHN-OH)	-19 ± 8.3 kcal/mol
CC(C)C[C@H](NC(=O)[C@@H]1CCCN1C(=O)[C@H](CC(N)=O)NC(=O)[C@@H]1C[C@@H](O)CN1C(=O)CNC(=O)[C@H](CO)NC(=O)[C@@H]1CCCN1C(=O)[C@@H]1CCCN1C(=O)[C@H](CC(C)C)NC(=O)[C@@H]1CCCN1)C(=O)N[C@@H](Cc1c[nH]cn1)C(=O)N[C@@H](CC(N)=O)C(=O)O [CLE9^R109PV111P] (H-PLPPSG[Hyp]NPLHN-OH)	-3.7 ± 0.4 kcal/mol

Molecular target: T4, HSL1 (HAESA-LIKE 1) ectodomain
Assay: ITC
Details: not given

Molecule	Kd
B1	690 nM
PVPASAPSRKHN [IDL4 (IDA-LIKE 4) mature peptide]	2020 nM
YVPVPASGPSRKHN (also: conserved central hydroxyproline, position not given here) [IDL2 (IDA-LIKE 2) mature peptide]	121 nM
B3	590 nM
B2	400 nM
